According to article PMC10849636 (bioRxiv, 2024):

Molecular target: the molecule itself
Assay: SEC

B1: full-length WT HIV-1 integrase (IN) (enzyme)
chain: FLDGIDKAQEEHEKYHSNWRAMASDFNLPPVVAKEIVASCDKCQLKGEAMHGQVDCSPGIWQLDCTHLEGKVILVAVHVASGYIEAEVIPAETGQETAYFLLKLAGRWPVKTVHTDNGSNFTSTTVKAACWWAGIKQEFGIPYNPQSQGVIESMNKELKKIIGQVRDQAEHLKTAVQMAVFIHNFKRKGGIGGYSAGERIVDIIATDIQTKELQKQITKIQNFRVYYRDSRDPVWKGPAKLLWKGEGAVVIQDNSDIKVVPRRKAKIIRDYGKQMAGDDCVASRQDED
**Q.** Does B1 bind?
**A.** binds
